Assays:
DLL3 on SHP77 cells [1] = target: T1, DLL3 on SHP77 cells (UniProt Q9NYJ7 27-618, limits assumed); assay: flow cytometry on SHP77 cells, concentrated HEK supernatant, Protein L biotin + Streptavidin APC; percent APC positive cells
T1 construct: whole, on cells; also called delta-like ligand 3
T1 sequence (looked up): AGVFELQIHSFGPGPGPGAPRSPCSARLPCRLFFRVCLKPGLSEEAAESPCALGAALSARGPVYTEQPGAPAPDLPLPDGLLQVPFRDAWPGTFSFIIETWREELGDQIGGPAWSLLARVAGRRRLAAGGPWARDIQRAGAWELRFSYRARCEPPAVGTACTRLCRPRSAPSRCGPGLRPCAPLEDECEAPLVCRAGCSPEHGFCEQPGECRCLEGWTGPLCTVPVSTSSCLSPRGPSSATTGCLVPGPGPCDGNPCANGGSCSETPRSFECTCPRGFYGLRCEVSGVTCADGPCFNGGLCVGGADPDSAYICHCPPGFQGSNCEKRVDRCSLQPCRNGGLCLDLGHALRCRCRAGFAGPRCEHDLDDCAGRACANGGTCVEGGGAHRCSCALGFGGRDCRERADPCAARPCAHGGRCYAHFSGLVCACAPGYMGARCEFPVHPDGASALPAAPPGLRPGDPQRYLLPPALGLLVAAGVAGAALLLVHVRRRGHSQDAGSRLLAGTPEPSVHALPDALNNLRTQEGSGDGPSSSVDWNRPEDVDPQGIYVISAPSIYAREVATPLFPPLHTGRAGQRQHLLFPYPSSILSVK
Protocol: (§1) 500,000 SHP77 cells were seeded in wells of a V-bottom 96-well plate. The cells were washed once with PBS+2% FBS by centrifugation at 1300 RPM for 3 minutes. The cells were resuspended in 50 uL PBS+2% FBS containing concentrated HEK supernatant corresponding to either untransfected cells or cells transfected with a BiTE. After 30 minutes, the cells were washed twice with PBS+2% FBS by centrifugation at 1300 RPM for 3 minutes. The cells were then resuspended in 50 uL PBS+2% FBS containing either anti-Flag biotin (Sigma) at 1:100 dilution or Protein L biotin (Genscript) at 1:200 dilution, and incubated on ice for 30 minutes. The cells were washed twice with PBS+2% FBS by centrifugation at 1300 RPM for 3 minutes. Subsequently, the cells were stained with Streptavidin APC (Biolegend) at 1:200 dilution and incubated on ice for 30 minutes in the dark.
(§2) The cells were washed twice with PBS+2% FBS by centrifugation at 1300 RPM for 3 minutes and resuspended in DAPI diluted 1:6000 in PBS+2% FBS. Flow cytometry data were acquired using the ACEA NovoCyte® flow cytometer (ACEA Biosciences, Inc.), and analyzed using the FlowJo™ software (Tree Star, Inc.).

Human DLL3 (R&D Systems) [2] = target: T2, Human DLL3 (R&D Systems) (human, UniProt Q9NYJ7 27-492, limits assumed); assay: bridging ELISA: human DLL3 coated at 1 ug/ml, HEK293T supernatant, detection by human IgG Fc conjugated CD3e + anti-human-HRP (signal needs binding to both DLL3 and CD3e); untransfected 0.010
T2 sequence (looked up): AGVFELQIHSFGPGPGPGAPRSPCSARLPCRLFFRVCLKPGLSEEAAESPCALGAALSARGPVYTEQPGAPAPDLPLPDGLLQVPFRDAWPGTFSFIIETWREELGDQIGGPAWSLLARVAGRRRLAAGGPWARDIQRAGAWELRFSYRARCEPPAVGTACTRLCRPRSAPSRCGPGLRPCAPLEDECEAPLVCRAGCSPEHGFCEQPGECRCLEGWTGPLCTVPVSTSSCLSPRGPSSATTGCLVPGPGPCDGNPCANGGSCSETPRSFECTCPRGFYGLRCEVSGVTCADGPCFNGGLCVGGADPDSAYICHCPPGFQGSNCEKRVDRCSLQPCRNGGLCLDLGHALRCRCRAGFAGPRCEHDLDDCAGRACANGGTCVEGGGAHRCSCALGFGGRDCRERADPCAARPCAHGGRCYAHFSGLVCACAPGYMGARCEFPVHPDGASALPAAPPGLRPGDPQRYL
Protocol: (§3) The expressed DLL3×CD3 bispecific T-cell engagers also were evaluated for binding to DLL3 and to CD3 with an ELISA. This ELISA was developed to detect correctly folded DLL3×CD3 bispecific T-cell engager binding to DLL3 and CD3 in the same assay. Human DLL3 (R&D Systems) was coated overnight at 4° C. on a high protein-binding 96-well plate, at a concentration of 1 ug/ml. The wells then were washed three times with PBS 0.05% Tween-20, and the wells were blocked with ELISA blocking buffer for 1 hour at room temperature. The wells then were washed three times with PBS 0.05% Tween-20. HEK293T cell culture supernatants, containing the DLL3×CD3 bispecific T-cell engagers, were added to the wells and incubated for 2 hours at room temperature. The wells were washed three times with PBS 0.05% Tween-20, and human IgG Fc conjugated CD3e was added to the wells (Acro Biosystems), and incubated for one hour at room temperature. The wells again were washed three times with PBS 0.05% Tween-20, and horseradish peroxidase (HRP)-conjugated anti-human antibody was added for a 1 hour incubation. The wells were then washed three times with PBS 0.05% Tween-20, and detection reagent (3,3′,5,5′-tetramethylbenzidine (TMB), Thermo Fisher Scientific) was added to the wells. The enzymatic reaction was stopped with sulfuric acid (BioLegend), and the optical densities were read at 450 nm.

DLL3 on SHP77 cells [3] = target: T1, DLL3 on SHP77 cells; assay: flow cytometry on SHP77 cells, concentrated HEK supernatant, anti-Flag biotin + Streptavidin APC; percent APC positive cells
Protocol: as §1, §2

Human DLL3 (R&D Systems) [4] = target: T2, Human DLL3 (R&D Systems); assay: bridging ELISA (human DLL3 coated, CD3e-Fc detection) with engagers purified on ANTI-FLAG M2 Affinity Gel
Protocol: as §3
The table below provides the results of this ELISA, shown as the absorbance at 450 nm. All of the SC16.56 DLL3LH×CD3HL, SC16.34 DLL3HL×CD3HL, and SC16.34 DLL3LH×CD3HL BiTE antibodies were detected, showing that these BiTEs antibodies are fully functional. […] In a separate experiment, the bispecific T-cell engagers were purified using ANTI-FLAG M2 Affinity Gel (Sigma) and run on this ELISA. SC16.34 DLL3LH×CD3HL was the only purified BiTE to show ELISA signal above background.

Row | Binder | % Binding to SHP77 Detected by Protein L (DLL3 on SHP77 cells [1]) [%] | Absorbance at 450 nm (Human DLL3 (R&D Systems) [2]) | % Binding to SHP77 Detected by anti-Flag (DLL3 on SHP77 cells [3]) [%] | binding result (Human DLL3 (R&D Systems) [4])
1 | SC16.34 DLL3HL×CD3HL (bispecific antibody, the leader is left out here; Tested as HEK293T supernatant; also called SC16.34 DLL3HLxCD3HL BiTE) QIQLVQSGPELKRPGETVKISCKASGYTFTNYGMNWVKQAPGKGLKWMGWINTYTGDPTYADDFKGRFAFSLETSASTAYLQINNLKNEDTATYFCARIGGNSPSDYWGQGTSLTVSSGGGGSGGGGSGGGGSSIVMTQTPKFLLVSAGDRVTITCKASQSVSNDVAWYQQKPGQSPKLLIYYASNRYSGVPDRFTGSGYGTDFTFTISTVQAEDLAVYFCQQDYSSPWTFGGGTKLEIKGGGGSEVQLVESGGGLVQPGKSLKLSCEASGFTFSGYGMHWVRQAPGRGLESVAYITSSSINIKYADAVKGRFTVSRDNAKNLLFLQMNILKSEDTAMYYCARFDWDKNYWGQGTMVTVSSGGGGSGGGGSGGGGSDIQMTQSPSSLPASLGDRVTINCQASQDISNYLNWYQQKPGKAPKLLIYYTNKLADGVPSRFSGSGSGRDSSFTISSLESEDIGSYYCQQYYNYPWTFGPGTKLEIKDYKDDDDK | 36.6 | 0.253 absorbance (450 nm) | 19.6 | 
2 | SC16.15 DLL3HL×CD3HL (bispecific antibody, the leader is left out here; Tested as HEK293T supernatant; also called SC16.15 DLL3HLxCD3HL BiTE) QVQLQQSGAELAKPGASVKMSCKASGYTFTRYWIHWIKQRPGQGLEWIGYINPTTVYTEFNQNFKDKATLTADKSSTTASMQLSSLTSEDSAVYYCARGGSNFFDYWGQGTTLTVSSGGGGSGGGGSGGGGSDIQMTQSPASLAASVGETVAITCRASENIYYNLAWYQQKQGKSPQLLIYTANSLEDGVPSRFSGSGSGTQYSLKINSMQPEDSATYFCKQAYDVPPTFGGGTKLEIKGGGGSEVQLVESGGGLVQPGKSLKLSCEASGFTFSGYGMHWVRQAPGRGLESVAYITSSSINIKYADAVKGRFTVSRDNAKNLLFLQMNILKSEDTAMYYCARFDWDKNYWGQGTMVTVSSGGGGSGGGGSGGGGSDIQMTQSPSSLPASLGDRVTINCQASQDISNYLNWYQQKPGKAPKLLIYYTNKLADGVPSRFSGSGSGRDSSFTISSLESEDIGSYYCQQYYNYPWTFGPGTKLEIKDYKDDDDK |  | 0.002 absorbance (450 nm) |  | no binding
3 | SC16.15 DLL3LH×CD3HL (bispecific antibody, the leader is left out here; Tested as HEK293T supernatant; also called SC16.15 DLL3LHxCD3HL BiTE) DIQMTQSPASLAASVGETVAITCRASENIYYNLAWYQQKQGKSPQLLIYTANSLEDGVPSRFSGSGSGTQYSLKINSMQPEDSATYFCKQAYDVPPTFGGGTKLEIKGGGGSGGGGSGGGGSQVQLQQSGAELAKPGASVKMSCKASGYTFTRYWIHWIKQRPGQGLEWIGYINPTTVYTEFNQNFKDKATLTADKSSTTASMQLSSLTSEDSAVYYCARGGSNFFDYWGQGTTLTVSSGGGGSEVQLVESGGGLVQPGKSLKLSCEASGFTFSGYGMHWVRQAPGRGLESVAYITSSSINIKYADAVKGRFTVSRDNAKNLLFLQMNILKSEDTAMYYCARFDWDKNYWGQGTMVTVSSGGGGSGGGGSGGGGSDIQMTQSPSSLPASLGDRVTINCQASQDISNYLNWYQQKPGKAPKLLIYYTNKLADGVPSRFSGSGSGRDSSFTISSLESEDIGSYYCQQYYNYPWTFGPGTKLEIKDYKDDDDK |  | 0.001 absorbance (450 nm) |  | no binding

Second part, the binder after the results:

Row | % Binding to SHP77 Detected by Protein L (DLL3 on SHP77 cells [1]) [%] | Absorbance at 450 nm (Human DLL3 (R&D Systems) [2]) | % Binding to SHP77 Detected by anti-Flag (DLL3 on SHP77 cells [3]) [%] | binding result (Human DLL3 (R&D Systems) [4]) | Binder
4 | 36.4 | 0.175 absorbance (450 nm) | 20.9 |  | SC16.56 DLL3LH×CD3HL (bispecific antibody, the leader is left out here; Tested as HEK293T supernatant; also called SC16.56 DLL3LHxCD3HL BiTE) SIVMTQTPKFLLVSAGDRVTITCKASQSVSNDVVWYQQKPGQSPKLLIYYASNRYTGVPDRFAGSGYGTDFSFTISTVQAEDLAVYFCQQDYTSPWTFGGGTKLEIRGGGGSGGGGSGGGGSQIQLVQSGPELKKPGETVKISCKASGYTFTNYGMNWVKQAPGKGLKWMAWINTYTGEPTYADDFKGRFAFSLETSASTASLQIINLKNEDTATYFCARIGDSSPSDYWGQGTTLTVSSGGGGSEVQLVESGGGLVQPGKSLKLSCEASGFTFSGYGMHWVRQAPGRGLESVAYITSSSINIKYADAVKGRFTVSRDNAKNLLFLQMNILKSEDTAMYYCARFDWDKNYWGQGTMVTVSSGGGGSGGGGSGGGGSDIQMTQSPSSLPASLGDRVTINCQASQDISNYLNWYQQKPGKAPKLLIYYTNKLADGVPSRFSGSGSGRDSSFTISSLESEDIGSYYCQQYYNYPWTFGPGTKLEIKDYKDDDDK
5 | 36.4 | 1.46 absorbance (450 nm) | 20.1 |  | SC16.34 DLL3LH×CD3HL (bispecific antibody, the leader is left out here; also called SC16.34 DLL3LHxCD3HL BiTE) SIVMTQTPKFLLVSAGDRVTITCKASQSVSNDVAWYQQKPGQSPKLLIYYASNRYSGVPDRFTGSGYGTDFTFTISTVQAEDLAVYFCQQDYSSPWTFGGGTKLEIKGGGGSGGGGSGGGGSQIQLVQSGPELKRPGETVKISCKASGYTFTNYGMNWVKQAPGKGLKWMGWINTYTGDPTYADDFKGRFAFSLETSASTAYLQINNLKNEDTATYFCARIGGNSPSDYWGQGTSLTVSSGGGGSEVQLVESGGGLVQPGKSLKLSCEASGFTFSGYGMHWVRQAPGRGLESVAYITSSSINIKYADAVKGRFTVSRDNAKNLLFLQMNILKSEDTAMYYCARFDWDKNYWGQGTMVTVSSGGGGSGGGGSGGGGSDIQMTQSPSSLPASLGDRVTINCQASQDISNYLNWYQQKPGKAPKLLIYYTNKLADGVPSRFSGSGSGRDSSFTISSLESEDIGSYYCQQYYNYPWTFGPGTKLEIKDYKDDDDK
6 |  | 0.007 absorbance (450 nm) |  | no binding | SC16.56 DLL3HL×CD3HL (bispecific antibody, the leader is left out here; Tested as HEK293T supernatant; also called SC16.56 DLL3HLxCD3HL BiTE) QIQLVQSGPELKKPGETVKISCKASGYTFTNYGMNWVKQAPGKGLKWMAWINTYTGEPTYADDFKGRFAFSLETSASTASLQIINLKNEDTATYFCARIGDSSPSDYWGQGTTLTVSSGGGGSGGGGSGGGGSSIVMTQTPKFLLVSAGDRVTITCKASQSVSNDVVWYQQKPGQSPKLLIYYASNRYTGVPDRFAGSGYGTDFSFTISTVQAEDLAVYFCQQDYTSPWTFGGGTKLEIRGGGGSEVQLVESGGGLVQPGKSLKLSCEASGFTFSGYGMHWVRQAPGRGLESVAYITSSSINIKYADAVKGRFTVSRDNAKNLLFLQMNILKSEDTAMYYCARFDWDKNYWGQGTMVTVSSGGGGSGGGGSGGGGSDIQMTQSPSSLPASLGDRVTINCQASQDISNYLNWYQQKPGKAPKLLIYYTNKLADGVPSRFSGSGSGRDSSFTISSLESEDIGSYYCQQYYNYPWTFGPGTKLEIKDYKDDDDK
